Non-standard residues stand in square brackets, D forms with d. No end group written: not given here.
Tests used:
[1] = tested on: ALL cells; assay: Tumor cell viability by trypan blue exclusion, ALL cells; assay type: cell-based; details: BV-173 and SUP-B15, FIG. 5
Experimental: Tumor cells were treated with peptides at various concentrations for 12 hours and their viability measured by trypan blue exclusion, followed by analyses using the Beckman Coulter Z2 Particle Count and Size Analyzer (BC Z2 CS Analyzer). A minimum of 100 cells per sample using triplicate samples was counted per condition per experiment.

[2] = tested on: TREX-BCBL-Vector cells; assay: Cell death after overnight peptide incubation; assay type: cell-based; details: identical conditions, 30 or 50 μM
Excerpt: (§1) The vFLIP α2 (10 aa) and α4 (12 aa) peptides that independently bound Atg3 at high efficiency were fused with the HIV-1 TAT protein transduction domain for intracellular delivery (Gump and Dowdy (2007) Trends Mol. Med. 13:443-448) and tested for their potential effects on autophagy induction. The K-α2 and K-α4 peptides contained KSHV vFLIP aa20-29 and aa128-139 regions, respectively, as retro-inverso versions to circumvent the proteolytic degradation. Mutant peptides K-α2m and K-α4m were also included, which replaced the hydrophobic core residues of the K-α2 (L21F22L23) and K-α4 (F130L-WVY139) peptides with alanines, as well as the C-α2 and C-α4 peptides containing the cFLIPs regions aa19-28 and aa128-139, respectively. At 12 hr post-transfection with GFP-LC3, KSHV-infected TREX-BCBL-Vector and TREX-BCBL-vFLIP cells were incubated with various concentrations of the peptides or rapamycin for an additional 12 hr, followed by an assessment of the GFP-LC3 puncta and cell death. […] Peptide-treated TREX-BCBL-Vector and TREX-BCBL-vFLIP cells were subjected to immunoblotting with αLC3 and aactin.

[3] = tested on: KSHV-infected TREX-BCBL-Vector cells; assay: GFP-LC3 puncta autophagy assessment after peptide treatment; assay type: cell-based; details: 30 or 50 μM peptide, 12 hr
Excerpt: as §1

[4] = target: T1, Atg3 (Homo sapiens, UniProt Q9NT62); assay: GST pulldown of KSHV vFLIP α-helix fragments and deletion mutants; assay type: binding; details: GST fusions or deletion mutants in HEK293T
T1 construct: GFP (alternative construct GFP-Atg3, not on the same molecule as GST); expressed in transfected cells; host or cells: HEK293T
Excerpt: Due to the substantial similarities between DEDI and DED2, Atg3 bound each DED of KSHV vFLIP with a similar affinity. Structural analyses have shown that the DED1 and DED2 of KSHV vFLIP and MCV 159L contain six and five α-helixes, respectively. (Yang et al. (2005) Mol. Cell. 20:939-949); Bagneris et al. (2008) Mol. Cell. 30:620-631). To further define the Atg3 binding sequences, each DED of KSHV vFLIP was divided into small α-helix fragments based on the previous structural analysis and expressed as mammalian GST fusions. Truncated mutant constructs of KSHV-vFLIP and hATG3 were created by subcloning the PCR products of cDNA fragments containing each domain of the associated genes into pcDNA5/FRT/TO. HEK293T cells were transfected with mutant constructs for GST pulldown as described above, followed by immunoblotting with αV5. […] In contrast, vFLIP mutants carrying a loss of 14-3-3σ, IKKαβγ complex, or FADD interaction bound Atg3 and blocked rapamycin-induced autophagy as efficiently as wild-type vFLIP.

[5] = target: T2, Atg3 (human Atg3, E2-like enzyme of the LC3 conjugation system) (human, UniProt Q9NT62 1-314); assay: binding of Atg3 to the separate DEDs of vFLIP; method not detailed
T2 construct: also called hATG3; GFP-Atg3

[6] = target: T2, Atg3 (human Atg3, E2-like enzyme of the …); assay: co-immunoprecipitation from HEK293T cells
[7] = target: T1, Atg3; assay: Co-immunoprecipitation of FLIP with Atg3 in HEK293T cells; assay type: binding; details: endogenously and exogenously expressed Atg3
Experimental: The ability of FLIP to bind to Atg3 was evaluated by co-immunoprecipitation assay. HEK293T cells were transfected with Flag-vFLIP and/or GFP-Atg3 or Flag-vFLIP and/or GST-Atg3, and at 48 hr post-transfection, cells were harvested and lysed in an NP40 buffer supplemented with complete protease inhibitor cocktail (Roche). After pre-clearing with protein A/G agarose beads for 1 hr at 4° C., whole-cell lysates were used for immunoprecipitation with αFlag, αGFP, or GST. Generally, 1-4 μg of the antibody was added to 1 ml of the cell lysate and incubated at 4° C. for 8 to 12 hr. The immunoprecipitates were then washed extensively with a lysis buffer and eluted by boiling them with an SDS loading buffer for 5 min. Following immunoprecipitation, samples were treated to immunoblot using αAtg3 (1:500) (Novus).

[8] = tested on: NF-κB; assay: NF-κB luciferase reporter assay; assay type: cell-based; details: NIH3T3 cells, 48 hr post-transfection
Excerpt: To determine the effects of the interactions of vFLIP with FADD, IKKαβγ, and 14-3-3σ on anti-autophagy activity, NIH3T3 cells stably expressing various vFLIP mutants were constructed: m14-3-3σ, which lacks 14-3-3σ-binding; mTRAF2, which lacks TRAF2-binding (Guasparri et al. (2006) EMBO Rep. 7:114-119); 67AAA and 58AAA, which have reduced NF-κB activation (Matta and Chaudhary (2004) Proc. Natl. Acad. Sci. USA 101:9399-9404); and mFADD, which lacks FADD-binding (Yang et al. (2005) Mol. Cell. 20:939-949). These cells were treated with either cyclohexamide (CHX) alone or CHX and TNF-α for 12 hr or with 2 μM rapamycin for 3 hr. Propidium iodide (PI) staining and flow cytometry analysis were performed to determine apoptosis levels. Alternatively, NIH3T3 cells containing vector, KSHV vFLIP, or its mutants were transfected with an NF-κB-luciferase reporter construct and a control renilla luciferase plasmid, pRL-SV40 (Promega). At 48 hr post-transfection, luciferase activity was measured with a luminometer using a dual luciferase assay kit (Promega) and normalized with renilla luciferase activity to determine transfection efficiency. GFP-LC3 puncta were detected using an inverted fluorescence microscope and the autophagy levels quantified as means (±SD) of the results from three independent experiments.

[9] = tested on: human Atg3 deletion mutants; assay: GST pulldown with Atg3 deletion mutants; assay type: binding; details: GST-Atg3, N-terminal and C-terminal regions
Excerpt: The overall structure of yeast Atg3 has a unique hammer-like shape with the N-terminal and C-terminal regions discretely responsible for Atg7 and Atg8 (equivalent to mammalian LC3) binding, respectively. (Yamada et al. (2007) J. Biol. Chem. 282:8036-8043). Based on the structure of yeast Atg3, human Atg3 deletion mutants fused with a GST mammalian expression vector were constructed: GST-Atg31-93, GST-Atg3193-268, GST-Atg3268-315, and GST-Atg3193-315-GST-tagged hATG3 and hATG3 mutant genes were cloned into a pcDNA5/FRT/TO derivative encoding an N-terminal GST epitope tag between the BamHI and NotI sites. GST pulldown with Flag-KSHV vFLIP, Flag-cFLIPs, Flag-MCV 159L, or Flag-HVS vFLIP along with GST-Atg3, GST-Atg3 N-terminal region (Nt), or GST-Atg3 C-terminal region (Ct) was performed as described above and was followed by immunoblotting with aFlag or aGST.

[10] = tested on: NIH3T3 cells; assay: GFP-LC3 autophagy with ectopic FLIP expression; assay type: cell-based; details: Hank's solution 4 hr or 2 μM rapamycin 3 hr
Experimental: At 12-16 hours post-transfection with GFP-LC3, NIH3T3 cells containing vector or the FLIP gene were treated with Hank's solution for 4 hr or with 2 μM rapamycin for 3 hr. Subsequently, GFP-LC3 was detected using an inverted fluorescence microscope, autophagy was quantified as means (±SD) of the combined results from three independent experiments, and autophagosomes were visualized through scanning electron microscopy. NIH3T3-Vector, NIH3T3-KSHV-vFLIP, and NIH3T3-MCV-159L cells were treated with Hank's solution for 4 hr, followed by immunoblotting with anti-LC3 and anti-βTubulin. At 12-16 hr post-transfection with GFP-LC3, TREX-BCBL-Vector and TREX-BCBL-vFLIP cells were treated with doxycycline for 24 hr, followed by incubation with 2 μM rapamycin for an additional 12 hr. The detection of GFP-LC3 and autophagy levels was performed as described above, vFLIP expression was detected by IB with anti-Flag, and autophagosomes were visualized by scanning EM. TNF-induced apoptosis and NF-κB luciferase assay were performed as previously described (Matta and Chaudhary (2004) Proc. Natl. Acad. Sci. USA 101:9399-9404).
The anti-autophagic properties of vFLIP, as well as the related cFLIP, HSV, and MCV, were evaluated by ectopic expression of HVS, vFLIP, MCV 159L, and the short form of cFLIP (cFLIPs) in NIHI3T3 cells. DNA fragments corresponding to the coding sequences of the KSHV-vFLIP, human cFLIPs, MCV-MC159, and HVS-vFLIP genes were amplified via polymerase chain reaction and subcloned into pcDNA5/FRT/TO between the AflII and BamHI restriction sites or pEF-IRES-puro between the AflII and XbaI sites. Starvation studies were carried out by transfecting cells containing vector or the FLIP gene with GFP-LC3, then 12-16 h post-transfection, treating the cells with Hank's solution for 4 hr or with 2 μM rapamycin for 3 hr. Autophagy was assessed by GFP-LC3 redistribution using an inverted fluorescence microscope, quantifying autophagy as means (±SD) of the combined results from three independent experiments. Autophagosomes were visualized through scanning electron microscopy. […]

T1 sequence (Q9NT62 whole entry, the tested form may be a part): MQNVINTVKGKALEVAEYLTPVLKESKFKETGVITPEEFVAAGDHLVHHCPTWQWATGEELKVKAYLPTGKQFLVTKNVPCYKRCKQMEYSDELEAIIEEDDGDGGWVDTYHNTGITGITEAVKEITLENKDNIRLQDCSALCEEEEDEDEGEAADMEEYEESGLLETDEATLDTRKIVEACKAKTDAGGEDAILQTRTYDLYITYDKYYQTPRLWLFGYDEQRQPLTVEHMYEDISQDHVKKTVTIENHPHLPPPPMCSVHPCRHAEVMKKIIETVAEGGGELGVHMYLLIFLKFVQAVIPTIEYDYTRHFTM
T2 sequence (Q9NT62 whole entry): as the sequence (Q9NT62 whole entry, the tested form may be a part) above

RRRQRRKKRGY-G-NEMCAAAHAATQ [K-α4m]
anticancer activity in ALL cell lines [1]: significant anticancer activities | cell death (in words) [2]: no increase in autophagy nor cell death | autophagy induction (GFP-LC3 puncta) [3]: no increase in autophagy

QTFLHWVYCMEN [DED2 α4 helix]
Atg3 binding (GST pulldown) [4]: individually sufficient for Atg3 binding

RRRQRRKKRGY-G ([dR][dR][dR][dQ][dR][dR][dK][dK][dR]G[dY]G; not fully specified; printed as RRRQRRKKRGY-G) [HIV-1 TAT only, HIV-1 TAT protein transduction domain alone, reference compound]
cell death (in words) [2]: no increase in autophagy nor cell death | autophagy induction (GFP-LC3 puncta) [3]: no increase in autophagy

RRRQRRKKRGY-G-FVNLAAAVVE [K-α2m]
cell death (in words) [2]: no increase in autophagy nor cell death | autophagy induction (GFP-LC3 puncta) [3]: no increase in autophagy

B1: KSHV vFLIP DED1 (other)
chain: MATYEVLCEVARKLGTDDREVVLFLLNVFIPQPTLAQLIGALRALKEEGRLTFPLLAECLFRAGRRDLLRDLLHLDPRFLERHLAGTMSY
notes: also called DED1 of KSHV vFLIP
binding result [5]: binds

B2: MCV 159L (MCV vFLIP) (other)
chain: MSDSKEVPSLPFLRHLLEELDSHEDSLLLFLCHDAAPGCTTVTQALCSLSQQRKLTLAALVEMLYVLQRMDLLKSRFGLSKEGAEQLLGTSFLTRYRKLMVCVGEELDSSELRALRLFACNLNPSLSTALSESSRFVELVLALENVGLVSPSSVSVLADMLRTLRRLDLCQQLVEYEQQEQARYRYCYAASPSLPVRTLRRGHGASEHEQLCMPVQESSDSPELLRTPVQESSSDSPEQTT
notes: also called MCV-MC159; MCV MC159
binding result [6]: binds | interaction with Atg3 (co-immunoprecipitation) [7]: interacted with Atg3 as efficiently as KSHV-vFLIP | NF-κB activation [8]: did not carry out NF-κB activation | Atg3 region bound (GST pulldown) [9]: Atg3 binding patterns similar to KSHV vFLIP | suppression of starvation- and rapamycin-induced autophagy [10]: strongly suppressed starvation- and rapamycin-induced autophagy

B3: HVS vFLIP (other)
chain: MDLKTTVLHITDSFTEEEMYCLLFLINGCIPRNCNAVKISDLIIETLSKSTQWDICLTQCLYVLRKIELLLNLFQVTKEDVKQSFFTQLQLETHVLTLVNVNNNLTAKDEKRLCFILDQFFPRNVVASSVILCVFSNMLCEMPVLECLCQLKKCLKQIGRSDLAKTV
notes: also called Flag-HVS vFLIP
binding result [6]: binds | interaction with Atg3 (co-immunoprecipitation) [7]: interacted with Atg3 as efficiently as KSHV-vFLIP | Atg3 region bound (GST pulldown) [9]: Atg3 binding patterns similar to KSHV vFLIP | suppression of starvation- and rapamycin-induced autophagy [10]: strongly suppressed starvation- and rapamycin-induced autophagy

B4: KSHV vFLIP DED2 (other)
chain: FSPYQLTVLHVDGELCARDIRSLIFLSKDTIGSRSTPQTFLHWVYCMENLDLLGPTDVDALMSMLRSLSRVDLQRQVQTLMGLHLSGPSHSQHYRHTP
notes: also called DED2 of KSHV vFLIP
binding result [5]: binds
